# Patent US11845963B2, “HSD17B13 variants and uses thereof” (Regeneron Pharmaceuticals, Inc., priority 2017, dated 2023)
# Entries after “also recorded” stand apart in the source; their conditions may differ.
# T1: recombinant human HSD17B13 (Homo sapiens, UniProt Q7Z5P4)
# T1 sequence (Q7Z5P4 20-300): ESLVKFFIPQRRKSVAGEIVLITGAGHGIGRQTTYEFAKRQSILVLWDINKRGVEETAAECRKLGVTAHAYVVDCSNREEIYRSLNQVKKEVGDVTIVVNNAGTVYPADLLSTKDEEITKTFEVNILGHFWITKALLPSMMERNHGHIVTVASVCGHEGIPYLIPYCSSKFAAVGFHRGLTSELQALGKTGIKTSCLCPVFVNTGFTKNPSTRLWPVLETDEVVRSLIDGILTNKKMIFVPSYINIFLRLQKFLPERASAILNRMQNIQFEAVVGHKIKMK
# T2: recombinant human HSD17B13 (Homo sapiens, UniProt Q7Z5P4)
# T2 construct: Transcript A, which encodes the full-length 300 amino acid protein; 10xHis (C); host or cells: E. coli
# T2 sequence (Q7Z5P4 with tags, fused parts or gaps): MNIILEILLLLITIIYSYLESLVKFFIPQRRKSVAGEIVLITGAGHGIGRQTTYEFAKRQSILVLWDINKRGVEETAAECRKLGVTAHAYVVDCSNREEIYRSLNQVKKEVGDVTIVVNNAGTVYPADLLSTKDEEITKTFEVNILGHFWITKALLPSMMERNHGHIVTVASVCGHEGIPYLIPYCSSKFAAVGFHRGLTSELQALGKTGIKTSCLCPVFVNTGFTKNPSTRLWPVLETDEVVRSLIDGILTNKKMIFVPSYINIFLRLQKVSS
# B1: HSD17B13 isoform A: HSD17B13 protein Isoform A, SEQ ID NO:39; full-length 300 amino acid protein encoded by Transcript A (protein)
# chain: MNIILEILLLLITIIYSYLESLVKFFIPQRRKSVAGEIVLITGAGHGIGRQTTYEFAKRQSILVLWDINKRGVEETAAECRKLGVTAHAYVVDCSNREEIYRSLNQVKKEVGDVTIVVNNAGTVYPADLLSTKDEEITKTFEVNILGHFWITKALLPSMMERNHGHIVTVASVCGHEGIPYLIPYCSSKFAAVGFHRGLTSELQALGKTGIKTSCLCPVFVNTGFTKNPSTRLWPVLETDEVVRSLIDGILTNKKMIFVPSYINIFLRLQKFLPERASAILNRMQNIQFEAVVGHKIKMK
# modifications: homo sapien
# notes: full-length 300 amino acid protein encoded by Transcript A
# B2: HSD17B13 isoform D: HSD17B13 protein Isoform D, SEQ ID NO:42; prematurely truncated protein encoded by Transcript D of the rs72613567 variant (protein)
# chain: MNIILEILLLLITIIYSYLESLVKFFIPQRRKSVAGEIVLITGAGHGIGRQTTYEFAKRQSILVLWDINKRGVEETAAECRKLGVTAHAYVVDCSNREEIYRSLNQVKKEVGDVTIVVNNAGTVYPADLLSTKDEEITKTFEVNILGHFWITKALLPSMMERNHGHIVTVASVCGHEGIPYLIPYCSSKFAAVGFHRGLTSELQALGKTGIKTSCLCPVFVNTGFTKNPSTRLWPVLETDEVVRSLIDGILTNKKMIFVPSYINIFLRLQKVSS
# modifications: homo sapien
# notes: prematurely truncated protein encoded by Transcript D of the rs72613567 variant
# Experiments:
# [1] = biological target: T1, recombinant human HSD17B13; test: Substrate screening of steroid and bioactive lipid libraries against purified recombinant HSD17B13 (NADH-Glo); format: biochemical; conditions: 265 unique putative substrates tested
# Procedure: Reactions were performed in a final volume of 40 μl of assay buffer (0.2 M Tris-HCl, pH 7.5) which contained 500 μM NAD^+, 5 μM bioactive lipid or 50 μM steroid (all in a final concentration of 5% DMSO), and 100 ng recombinant human HSD17B13. Reactions were incubated for 3 hours, at 23° C. after which an equal volume NADH-Glo Detection Reagent (Promega) was added. Following a 1 hour incubation at 23° C., the relative light units (RLUs) were measured on an Envision Plate Reader (Perkin Elmer). Raw RLU values were normalized as percent of control (50 μM estradiol) following subtraction of negative control (5% DMSO) using the following formula: Percent of control (POC)=100×(Sample (RLU)−Negative CTRLaverage)/(Positive CTRLaverage−Negative CTRLaverage).
# [2] = system: HepG2 cells overexpressing HSD17B13 Transcript A or D or GFP; test: Quantification of intracellular triglyceride content in stable cell lines; format: cell-based, human; conditions: for intracellular triglyceride content of overexpressing cell lines versus GFP control: with oleic acid treatment, FIG. 10
# Procedure: HepG2 cells were cultured in Eagle's Minimum Essential Medium supplemented with 10% fetal bovine serum. HSD17B13 transcripts A and D were sub-cloned into Myc-DDK backbone lentivirus constructs, and lentivirus were generated. HepG2 cells were infected with lentivirus carrying the HSD17B13 transcripts. Stable cell lines expressing each HSD17B13 transcript were selected with 1-3 mg/ml Geneticin G-418 sulfate in complete culture medium for two weeks. Following fixation, HSD17B13 isoforms were detected with mouse anti-Myc antibody. Lipid droplets were labeled with BODIPY FL dye (Sigma). Secondary antibodies for immunofluorescence were Alexa Fluor 488 donkey anti-rabbit IgG and Alexa Fluor 594 donkey anti-mouse IgG (Jackson ImmunoResearch).
# The triglyceride (TG) content from the stable cells was determined using a TG quantification kit (Abcam). In the assay, TG are converted to free fatty acids and glycerol. The glycerol is then oxidized to generate a product which is quantified (spectrophotometry at λ=570 nm).
# [3] = system: HEK293 cells overexpressing HSD17B13 transcript A, transcript D or GFP; test: Cell-based conversion of estradiol to estrone in culture media, LC-MS; set-up: species or system human; conditions: overexpressed in HEK293 cells; FIG. 4F
# Procedure: HEK293 cells overexpressing HSD17B13 transcript A, transcript D or green fluorescent protein (GFP, control) were used to investigate the activity of HSD17B13 against estradiol in a cell-based assay. Estradiol (1 μM) was fed to each cell type. After 48 hours, the media was collected and the concentration of estradiol and its converted product estrone were identified and quantified by LC-MS.
# [4] = biological target: T2, recombinant human HSD17B13; test: In vitro enzymatic activity of purified recombinant HSD17B13 isoforms A and D (NADH production, NAD(P)H-Glo); format: biochemical; conditions: FIG. 4E
# Procedure: Recombinant human HSD17B13 protein was purified from E. coli (Genscript) transformed with plasmid DNA harboring HSD17B13 transcript A or transcript D. The HSD17B13 variants contained a 10×His tag at the C terminus and were purified from soluble fraction using a Ni2^+ affinity purification. Enzymatic activity was determined through measurement of NADH production using the NAD(P)H-Glo Detection System (Promega). Reactions were performed for 3 hours at 25° C. in 0.2 M Tris-HCl, pH 7.5, 0.5 mM NAD^+, 75 μM of substrate (Sigma) and 500 ng purified enzyme in a final volume of 100 μL. After incubation, 20 μL of the reaction was combined with 20 μL luciferase reagent (Promega), incubated at room temperature for 1 hour and read on an Envision Plate Reader (Perkin Elmer).
Molecule,conversion of estradiol (substrate) to estrone (product) measured in the culture media [3],intracellular triglyceride content of overexpressing cell lines versus GFP control [2],other results
CCCCC/C=C\C[C@@H](O)/C=C/C=C/C=C\[C@@H](O)CCCC(=O)O [leukotriene B4],,,identified as enzymatic substrate of HSD17B13 [1]: enzymatic substrates of HS17B13
"CCCCCCCC/C=C\CCCCCCCC(=O)O [oleic acid, reference compound]",,,"triglyceride (TG) content after oleic acid treatment ([2]; increasing concentrations of oleic acid, control (GFP), HSD17B13 transcript A and D HepG2 cell lines, FIG. 10B): increased triglyceride (TG) content to a similar extent"
B1,showed robust conversion,No differences in intracellular triglyceride content,
B2,did not show much conversion; also recorded: greatly reduced activity towards estradiol,No differences in intracellular triglyceride content,"activity towards estradiol in vitro compared to HSD17B13 isoform A ([4]; recombinant protein, NAD+ cofactor): greatly reduced activity towards estradiol; enzymatic activity of the corresponding values for isoform A ([4]; substrates 17-beta estradiol, leukotriene B4 (LTB4), 13(S)-HODE): < 10%"
